Experimental data as given in US20210299158A1 (NORTHWESTERN UNIVERSITY, published 2021).
Ends that are not written are not given here. * marks the point of attachment. Biotin = O=C1N[C@H]2[C@H](CS[C@H]2CCCCC(=O)*)N1

T1: Collagen type III (human) (human, UniProt P02461 154-1221)
T1 construct: Coated on plates; also called collagen III; COL III
T1 sequence (looked up): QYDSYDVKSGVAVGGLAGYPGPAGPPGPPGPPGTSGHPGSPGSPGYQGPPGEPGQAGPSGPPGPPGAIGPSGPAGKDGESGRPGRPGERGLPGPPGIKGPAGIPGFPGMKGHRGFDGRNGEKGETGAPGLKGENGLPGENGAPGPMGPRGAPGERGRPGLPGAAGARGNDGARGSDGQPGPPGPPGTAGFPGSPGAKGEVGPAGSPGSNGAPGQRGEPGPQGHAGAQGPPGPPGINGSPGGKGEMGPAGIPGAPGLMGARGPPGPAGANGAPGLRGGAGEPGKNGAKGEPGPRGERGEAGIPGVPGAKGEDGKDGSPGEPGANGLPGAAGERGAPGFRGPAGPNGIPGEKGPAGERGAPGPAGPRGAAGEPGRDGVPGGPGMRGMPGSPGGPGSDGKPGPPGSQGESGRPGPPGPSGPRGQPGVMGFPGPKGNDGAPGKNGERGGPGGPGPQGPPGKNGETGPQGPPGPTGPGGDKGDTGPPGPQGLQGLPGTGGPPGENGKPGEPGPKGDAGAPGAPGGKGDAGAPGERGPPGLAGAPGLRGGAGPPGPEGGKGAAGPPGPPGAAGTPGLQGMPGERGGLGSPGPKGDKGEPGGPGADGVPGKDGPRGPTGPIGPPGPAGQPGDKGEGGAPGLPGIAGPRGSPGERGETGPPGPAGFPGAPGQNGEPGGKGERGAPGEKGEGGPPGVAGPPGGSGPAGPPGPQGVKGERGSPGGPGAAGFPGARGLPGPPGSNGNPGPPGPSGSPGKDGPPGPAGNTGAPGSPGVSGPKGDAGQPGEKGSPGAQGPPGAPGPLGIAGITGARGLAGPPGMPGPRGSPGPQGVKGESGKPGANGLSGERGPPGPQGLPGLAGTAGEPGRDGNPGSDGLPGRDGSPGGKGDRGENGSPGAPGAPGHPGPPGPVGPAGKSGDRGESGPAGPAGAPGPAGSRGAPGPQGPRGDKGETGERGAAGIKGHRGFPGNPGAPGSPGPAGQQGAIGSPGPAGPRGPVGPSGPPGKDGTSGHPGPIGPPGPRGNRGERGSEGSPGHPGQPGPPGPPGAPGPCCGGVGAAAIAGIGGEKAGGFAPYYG


What was measured:
[1] = target: Collagen IV (surface coated, Example 2); experiment: Cy5 fluorescence after 24 hour incubation on surface coated collagen IV; conjugate at 30 mg/ml; reference is the scrambled CBPi-Hep(Cy5) conjugate
Collagen type I (rat) = target: T2, Collagen type I (rat) (rat, UniProt P02454 152-1207; P02466 86-1125); experiment: plate binding, biotinylated peptide on coated protein, streptavidin-594 fluorescence
T2 construct: Coated on plates at 10 ug/cm^2; the chains come from general knowledge; also called collagen I; COL I
Method: (§1) Peptide and ECM Binding Specificity. Collagens I, II, III, and IV, fibronectin, laminin, and Matrigel were coated onto 96-well black plates at 10 μg/cm². Biotinylated CBP or CBPi were added to coated plates at 0, 1, 10, 100, and 1000 μM overnight at 4° C., after which the plates were washed three times with PBS. Fluorescent streptavidin-594 (4 μg/mL) was added to each well and incubated at room temperature for 2 h, then thoroughly washed with PBS. The plates were read with a fluorescence microplate reader for fluorescence intensity (Ex 591 nm, Em 614 nm). All data were normalized to the background fluorescence intensity of Streptavidin-594 alone directed at each coated protein.
(§2) CBP Selectively Binds to ECM with High Specificity to Collagen IV. […] Bound peptides were subsequently probed with fluorescently labeled streptavidin. CBP, but not CBPi, bound specifically to collagen IV coated surfaces with high relative affinity, and to collagen I coated surfaces to a much lesser extent. […] Neither CBP nor CBPi binds to collagen II, collagen III, or fibronectin.

[2] = target: T3, Fibronectin from human plasma (human, UniProt P02751-8 32-2296, limits assumed); experiment: as above
T3 construct: Coated on plates; also called FN
Method: as §1, §2

Collagen type IV (mouse) [3] = target: T4, Collagen type IV (mouse) (mouse, UniProt P02463 28-1669; P08122 26-1707); experiment: as above
T4 construct: Coated on plates at 10 ug/cm^2; the chains come from general knowledge; also called collagen IV; COL IV
T4 sequence (P02463 28-1669, chain 1 of 2): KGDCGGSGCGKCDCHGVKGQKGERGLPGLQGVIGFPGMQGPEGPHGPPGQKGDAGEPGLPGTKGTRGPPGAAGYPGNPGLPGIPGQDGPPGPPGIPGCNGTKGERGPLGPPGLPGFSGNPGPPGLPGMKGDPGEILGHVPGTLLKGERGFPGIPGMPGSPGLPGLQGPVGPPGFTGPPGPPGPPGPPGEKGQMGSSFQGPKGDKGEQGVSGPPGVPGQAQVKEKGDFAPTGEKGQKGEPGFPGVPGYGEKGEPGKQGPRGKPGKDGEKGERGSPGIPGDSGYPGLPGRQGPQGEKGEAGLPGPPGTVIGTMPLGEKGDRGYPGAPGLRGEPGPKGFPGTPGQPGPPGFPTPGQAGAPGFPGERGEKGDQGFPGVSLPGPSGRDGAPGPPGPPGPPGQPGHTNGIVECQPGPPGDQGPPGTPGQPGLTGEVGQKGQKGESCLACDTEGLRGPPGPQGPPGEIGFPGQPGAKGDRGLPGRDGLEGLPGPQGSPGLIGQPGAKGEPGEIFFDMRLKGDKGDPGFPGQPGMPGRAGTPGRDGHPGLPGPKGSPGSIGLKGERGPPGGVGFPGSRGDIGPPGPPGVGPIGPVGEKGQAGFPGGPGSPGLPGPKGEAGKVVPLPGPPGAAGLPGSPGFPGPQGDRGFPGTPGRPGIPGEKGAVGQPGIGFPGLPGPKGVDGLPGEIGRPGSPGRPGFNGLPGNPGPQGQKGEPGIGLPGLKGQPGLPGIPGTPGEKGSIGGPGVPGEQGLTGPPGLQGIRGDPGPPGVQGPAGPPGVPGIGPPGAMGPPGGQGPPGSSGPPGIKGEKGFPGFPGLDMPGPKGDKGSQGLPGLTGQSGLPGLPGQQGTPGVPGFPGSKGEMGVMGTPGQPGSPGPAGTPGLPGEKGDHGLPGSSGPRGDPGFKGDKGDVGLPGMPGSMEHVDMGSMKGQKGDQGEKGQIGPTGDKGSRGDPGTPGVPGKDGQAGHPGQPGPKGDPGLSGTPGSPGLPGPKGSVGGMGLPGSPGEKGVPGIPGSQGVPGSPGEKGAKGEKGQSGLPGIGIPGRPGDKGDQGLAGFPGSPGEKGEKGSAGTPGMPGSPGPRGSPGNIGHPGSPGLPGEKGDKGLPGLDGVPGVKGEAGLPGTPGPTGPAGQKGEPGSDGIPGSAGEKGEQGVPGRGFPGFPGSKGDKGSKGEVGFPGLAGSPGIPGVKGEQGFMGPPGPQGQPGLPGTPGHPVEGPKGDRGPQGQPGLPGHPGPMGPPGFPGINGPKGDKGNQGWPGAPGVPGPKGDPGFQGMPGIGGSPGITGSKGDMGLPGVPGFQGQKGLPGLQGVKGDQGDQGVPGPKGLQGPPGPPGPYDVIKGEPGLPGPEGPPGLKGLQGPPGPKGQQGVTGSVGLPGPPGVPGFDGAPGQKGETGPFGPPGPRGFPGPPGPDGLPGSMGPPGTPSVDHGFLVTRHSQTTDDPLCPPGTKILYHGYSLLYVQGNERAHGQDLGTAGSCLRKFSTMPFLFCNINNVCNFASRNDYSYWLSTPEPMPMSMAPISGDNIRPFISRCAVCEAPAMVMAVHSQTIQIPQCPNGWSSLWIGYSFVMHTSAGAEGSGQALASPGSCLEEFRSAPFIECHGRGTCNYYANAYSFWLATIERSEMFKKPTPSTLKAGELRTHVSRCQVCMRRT
T4 sequence (P08122 26-1707, chain 2 of 2): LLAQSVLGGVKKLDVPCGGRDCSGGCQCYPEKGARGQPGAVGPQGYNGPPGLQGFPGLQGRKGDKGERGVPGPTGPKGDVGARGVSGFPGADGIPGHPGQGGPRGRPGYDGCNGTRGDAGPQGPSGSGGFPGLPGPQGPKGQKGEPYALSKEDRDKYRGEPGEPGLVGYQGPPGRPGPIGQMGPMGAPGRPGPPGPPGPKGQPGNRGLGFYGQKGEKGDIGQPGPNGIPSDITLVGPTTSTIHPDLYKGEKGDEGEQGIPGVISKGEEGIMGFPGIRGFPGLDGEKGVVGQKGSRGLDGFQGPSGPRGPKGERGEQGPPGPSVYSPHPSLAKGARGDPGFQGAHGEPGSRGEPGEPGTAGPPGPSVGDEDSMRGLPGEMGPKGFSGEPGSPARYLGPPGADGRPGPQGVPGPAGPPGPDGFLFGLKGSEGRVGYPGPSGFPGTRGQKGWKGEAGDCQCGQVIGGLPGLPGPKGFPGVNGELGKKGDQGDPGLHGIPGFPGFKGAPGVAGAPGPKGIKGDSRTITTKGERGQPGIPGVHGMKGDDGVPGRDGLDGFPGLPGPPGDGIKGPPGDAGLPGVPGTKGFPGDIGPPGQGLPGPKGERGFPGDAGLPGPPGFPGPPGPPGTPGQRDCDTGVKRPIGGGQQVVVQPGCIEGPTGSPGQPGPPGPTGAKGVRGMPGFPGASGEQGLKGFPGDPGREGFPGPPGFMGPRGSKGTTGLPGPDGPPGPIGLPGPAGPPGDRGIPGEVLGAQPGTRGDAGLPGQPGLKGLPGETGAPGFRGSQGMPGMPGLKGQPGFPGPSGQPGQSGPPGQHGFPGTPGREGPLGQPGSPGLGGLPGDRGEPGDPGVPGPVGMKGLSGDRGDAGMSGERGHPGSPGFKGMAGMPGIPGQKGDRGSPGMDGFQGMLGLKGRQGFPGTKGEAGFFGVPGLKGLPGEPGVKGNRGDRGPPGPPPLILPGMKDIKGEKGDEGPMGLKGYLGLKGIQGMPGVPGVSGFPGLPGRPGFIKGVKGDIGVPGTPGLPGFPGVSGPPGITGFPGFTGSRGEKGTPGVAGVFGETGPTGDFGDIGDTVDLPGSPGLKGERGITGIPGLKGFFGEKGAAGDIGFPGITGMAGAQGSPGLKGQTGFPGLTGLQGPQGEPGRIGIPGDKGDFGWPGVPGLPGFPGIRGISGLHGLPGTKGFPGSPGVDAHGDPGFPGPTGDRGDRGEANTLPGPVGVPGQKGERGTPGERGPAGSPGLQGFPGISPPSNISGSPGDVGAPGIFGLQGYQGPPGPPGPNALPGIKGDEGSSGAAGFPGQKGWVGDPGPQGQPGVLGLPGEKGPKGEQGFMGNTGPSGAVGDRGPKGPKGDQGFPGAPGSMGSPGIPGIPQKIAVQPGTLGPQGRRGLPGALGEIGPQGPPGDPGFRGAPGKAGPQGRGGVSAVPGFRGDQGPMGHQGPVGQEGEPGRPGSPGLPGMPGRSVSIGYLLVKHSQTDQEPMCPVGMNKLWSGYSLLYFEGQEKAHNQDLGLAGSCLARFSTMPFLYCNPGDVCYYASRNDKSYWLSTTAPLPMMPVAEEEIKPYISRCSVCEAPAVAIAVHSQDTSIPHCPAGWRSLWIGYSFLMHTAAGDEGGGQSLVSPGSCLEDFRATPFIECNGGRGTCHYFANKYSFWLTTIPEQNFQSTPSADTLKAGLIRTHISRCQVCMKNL
Method: as §1, §2

[4] = target: T1, Collagen type III (human); experiment: as above
Method: as §1, §2

Collagen type IV (mouse) [5] = target: T4, Collagen type IV (mouse); experiment: plate binding, biotinylated CBP at 100 µM on coated collagen IV, streptavidin-594 fluorescence normalised to background
Method: as §1, §2

Collagen type IV (mouse) [6] = target: T4, Collagen type IV (mouse); experiment: plate binding, biotinylated CBP at 1000 µM on coated collagen IV, streptavidin-594 fluorescence normalised to background
Method: as §1, §2

fold binding against the scrambled CBPi control [1] [fold]	binding result (Collagen type I (rat))	binding result [2]	binding result (Collagen type IV (mouse) [3])	binding result [4]	fold increase in surface fluorescence intensity (Collagen type IV (mouse) [5]) [fold]	fold increase in surface fluorescence intensity (Collagen type IV (mouse) [6]) [fold]	Binder
4	–	–	–	–	–	–	CQDSETRTFY (also: peptide conjugated by EDC/NHS to carboxyl groups of Cy5-labelled heparin (28 kD), attachment site not given here) [CBP-Hep(Cy5), improved batch (Heparin(Cy5)-CBP conjugate, 20 C, 10:1 molar ratio CBP:Hep-Cy5)]
–	no binding (tested: 1000 µM)	no binding (tested: 1000 µM)	no binding (tested: 1000 µM)	no binding (tested: 1000 µM)	–	–	Biotin-CDEFQRSTTY (also called biotinylated CBPi) [Biotinylated inactive, nonbinding peptide CBPi (biotin-CDEFQRSTTY)]
–	–	no binding (tested: 1000 µM)	–	no binding (tested: 1000 µM)	3.85	12.1	Biotin-CQDSETRTFY (also called biotinylated CBP) [Biotinylated collagen-binding peptide CBP (biotin-CQDSETRTFY)]
